Results on two molecules are retold here after patent US20110070156A1 (published 2011).

Assay [1] has as its target Trop-2 (EGP-1, epithelial glycoprotein-1) (human) (UniProt P09758).
The target is the same in assay [2]. Kind of assay: cell-based or functional assay.
Assay [3] shares this target. Kind of assay: ELISA on Trop-2-expressing cell lines PC-3 and Calu-3.
Assay [4] addresses T1, Trop-2 (EGP-1, epithelial glycoprotein-1) (human, UniProt P09758 27-323).
T1 construct: whole, on cells
T1 sequence (looked up): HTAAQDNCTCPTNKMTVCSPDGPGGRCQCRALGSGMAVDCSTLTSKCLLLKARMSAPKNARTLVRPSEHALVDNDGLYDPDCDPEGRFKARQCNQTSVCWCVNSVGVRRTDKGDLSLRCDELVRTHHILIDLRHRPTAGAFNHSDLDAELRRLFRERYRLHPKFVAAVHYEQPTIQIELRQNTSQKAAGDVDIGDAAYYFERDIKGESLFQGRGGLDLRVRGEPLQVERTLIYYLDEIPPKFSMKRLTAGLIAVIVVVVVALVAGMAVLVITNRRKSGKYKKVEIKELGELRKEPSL
Kind of assay: ELISA on Trop-2-expressing cell lines PC-3 and Calu-3; apparent dissociation constant. On the technique in general: An ELISA detects its analyte on a solid surface through an enzyme-linked reagent.

2L-Rap(Q)-hRS7: in assay [1], the Kd was determined as 0.28 nM. Also, in assay [2], the EC50, MTS cell proliferation assay, Calu-3 cells came to 8.5 nM; the EC50, MTS cell proliferation assay, MDA-MB-468 cells turned out to be 3.8 nM; the EC50, MTS cell proliferation assay, ME-180 cells came to 1.5 nM; the EC50, MTS cell proliferation assay, T-47D cells was 2 nM. Also, the fold of apparent KD against hRS7 in assay [3] turned out to be 2 fold.

B1: hRS7 IgG (humanized RS7, anti-Trop-2 / anti-EGP-1) (antibody, V domains shown)
VH: QVQLQQSGSELKKPGASVKVSCKASGYTFTNYGMNWVKQAPGQGLKWMGWINTYTGEPTYTDDFKGRFAFSLDTSVSTAYLQISSLKADDTAVYFCARGGFGSSYWYFDVWGQGSLVTVSS
VL: DIQLTQSPSSLSASVGDRVSITCKASQDVSIAVAWYQQKPGKAPKLLIYSASYRYTGVPDRFSGSGSGTDFTLTISSLQPEDFAVYYCQQHYITPLTFGAGTKVEIKR
With B1, the Kd in assay [4] was 0.14 nM.
